Experimental data: the DeepSol protein solubility set

Test: soluble on expression in E. coli; label from the status in PepcDB or PDB records

Sequence | soluble on expression in E. coli
MRVVAFVPGSISDQILFFPTLDDLKRYYPDAQIDVIVESQSKAAYRLSKSVHEVLTFDYSDHNSLADWGNLVGTIRDREYDVAMTTGESWFIGLFLWLTGIPTRIGYKGKGAGFLTNTIRRNTSQYVAAMYHDLLKPVGIKTPCPELTANVPKPDIQWAQQEQKRLGIHETGYILIYGGSSHSSQIDGADTSYPIASWQQIIQDCQHKQPELPIVLIKEADDENFVRVLLESCSNLKITSPDDIGKLTAIISGASLMLSIENGPLQLAVAVQTYTIALLSSTDADKLLPKSDKFLAIKSHSGKTVDIPPPTVLEKIWGG | not soluble
MNMNQTTSPALSQVETAIRVPAGNFAKYNYYSVFDIVRQTRKQFINANMSWPGSRGGKTWDLAMGQAQYIRCMFRENQLTRRVRGTLQQTPDNGTNLSSSAVGGIQGQAERRPDLATLMVVNDAINQQIPTLLPYHFPHDQVELSLLNTDVSLEDIISESSIDWPWFLSNSLTGDNSNYAMELASRLSPEQQTLPTEPDNSTATDLTSFYQTNLGLKTADYTPFEALNTFARQLAITVPPGGTVDCGYSACQPAVLEHHHHHH | not soluble
MGSDKIHHHHHHMNLEQILLAISNPNDNELTIAGLEAAKVNWSVFYPELERLMDQFIADDTSLTDEQEAIVFFGTLLLAELKYSPALAKCLQLFARSDTYLTPIEAIFGDALTELTATLFFNVADGSTQTLSDYIVDGHQAMYCKASAIEAVFAQYEVGVIDKTELVEHVTRWLAAFLALPSSNNSFLISVLADSCIKYQLDDFKPQFIDLCDNDLFDEDRFKQCEVKAWDKANAAKLIESGNIQTKFNVVDTLNAWIVDDSNNEVADNMSNEDSDAFESLMGEDGLLADILYDENTILENSVPVSSLPTAGRNDPCPCGSGKKYKKCCLR | not soluble
MSKVALIRCESYDYDAVKSAVKRGLDLIGGPHRFAAPNEKILLKPNLLSADPPERCSTTHPSVFKAVAEIFMEAGITNLSYGDSPGIHKPITAARKNGIEKAANELGIKLADFLEGKEVFFENAIQNKKFIIANGVLESDGIISLPKLKTHGFARMTGCVKNQFGCIPGPLKGEFHVRIPSIIDFSKMLVDLNVYLKPRLFVMDGIIAMEGNGPRGGTPRKINAILLSEDPIALDATVCRMINLNPEFVPTIVFGKEAGLGTYDENEIEILGDDIQSFITYDFDVRREPVKPFKPGGAIQFFRNFIVPKPYILKNKCIKCGVCVNACPVKPKAVDWHNGNKKEPPTYIYKRCIRCYCCQELCPESAIHLKVPFIRKFFYNPK | not soluble
MGSDKIHHHHHHMTPTMSNIATLDDVRYQEHILQGVSRTFALTIPQLPPALREVVGNAYLLCRIVDTVEDDSALTLEQTRELAEMFIEVVSGTVEAETFARALYPLLSEHTIPAEHDLIKHTPSVIRMTHSFNPVQRQALERCIRIMGQGMAAYQESESLSGLENLAEMDRYCYHVAGVVGEMLTELFCDYSPEINQHKPALMQLSVSFGQGLQMTNILKDIWEDRKRGACWLPRDIFLQEGFDLNDLQPGCPERGFHAGLGTLIGIAKTHLQNALAYTCLIPSHEAGVRRFCLWAIGMAVLTLNKINHKRDFITGREVKISRRSVRATVLITSLLASQDWALKKIFAISSRNLPEVQIARS | not soluble
MSLAQSVAGSSVLTPGLTVSGPHSHARHSATLPSAMTAFPAAPDLAPPSRAAQGERVLCAMSGGVDSSVTASLLKEQGYQVIGAMMRFWPDDKRTDTFDSCCSPDAAYEARRVAEQVGVPFYLLDYREPFQRHIVGPFLEEYARGRTPNPCVNCNTKVKFDELVKKAKMLGCRYVATGHYVKRVDNAQGEVEFHRGDDPRKDQTYFLWGTPRDALPYILFPVGELEKPQVREIAAERGLLTAQKPESQNICFVPGKVQDFVAEHLPQAQGYIREIATGEVVGEHLGTQFYTLGQKKGLGLYQSHRVRHVVHLDPDSNTVWVGDYDDCLWTGLKATDANYLLDLAELPTELEVQVRYRTAPVKAHVLHADAEGFELEFAEPQFAVAPGQSAVLYAGSRLLGGGLIADHARELPALTEGHHHHHH | soluble
MSLQTQDIIRRSGTNSLTPPPQVRDHQEPVAKLIDVTTCIGCKACQVACSEWNDIRDEVGHNVGVYDNPADLTAKSWTVMRFSEVEDEESGKLEWLIRKDGCMHCADPGCLKACPSEGAIIQYANGIVDFQSEHCIGCGYCIAGCPFDVPRMNKDDNRVYKCTLCVDRVGVGQEPACVKTCPTGAIHFGTKESMKEVAAGRVAELKTRGFDNAGLYDPAGVGGTHVMYVLHHADKPQLYHGLPENPTISPTVTFWKGIWKPLAAVGFAATFAASIFHYVGVGPNRVEEEEEDDETTDPTPSETVAKAPEQTTSERSDEGETRK | not soluble
DVQLQQSGPELKKPGETVKLSCKASGYTFTNFGLNWMKQAPGKGLKWMGWINTYTGESTYADDFKGRFAFSLETSASTAYLQINNVKNEDTATYFCARGFYYYGSRYFYFDYWGQGTTLTVSSAKTTAPSVYPLAPVCGDTTGSSVTLGCLVKGYFPEPVTLTWNSGSLSSGVHTFPAVLQSDLYTLSSSVTVTSSTWPSQSITCNVAHPASSTKVDKKIEPRGP | soluble
MAHHHHHHMSKKEAISTPRKSKKAEVVIEGCVTIGSKQLLPSALDESRREQLSKQFDDIIEAHVAIDGGIADPVAAKIKELPTLSVGFIARAMGLNLSNDQVLSLVEMVEERDTVSRGCVPVGPLKEIIVGALMSGVITRQDSVAPTSNRKKRHSVSENRPLMHVSRDSEELIYAAFRTLDVGNRGYMEAEELRHLFRSGLEPFTDEEMENMIAAAADPQNGLIFYEDFVDVLANE | soluble
MSLYQLEDDSLMLHNDLYQINMAESYWNDNIHEKMAVFDLYFRKMPFNSGYAVFNGLKRVIDFIEHFGFSESDLEYLKSIGYKDDFLSYLKDLKFTGSIRSMQEGELCFGNEPLLRVEAPLIQAQLIETILLNIVNFHTLITTKASRIRQIASNDKLMEFGTRRAQEIDAALWGARAAYIGGFDSTSNVRAGKLFGIPVSGTHAHAFVQTYGDEYVAFKKYAERHKNCVFLVDTFHTLKSGVPNAIKVAKELGDKINFVGIRLDSGDIAYLSKEARRMLDEAGFTETKIIASNDLDEETITSLKAQGAKVDSWGVGTKLITGYDQPALGAVYKLVAIENEEGSYSDRIKLSNNAEKVTTPGKKNVYRIINKKTGKAEGDYITLENENPYDEQPLKLFHPVHTYKMKFIKSFEAIDLHHNIYENGKLVYQMPTEDESREYLAQGLQSIWDENKRFLNPQEYPVDLSKACWDNKHKRIFEVAEHVKEMEEDNEEGHHHHHH | soluble
MGSDKIHHHHHHMQHTIQHLYKTHGDDGLLYAWFLSMHTRVDIILCCQKSENELMLVVNSIYDTLRQLERIANYYDPSSELSQVNQRASTAPVMISQSLYRMISLCTEYHKKTLGCFDVTIHSDNYNQDTIHSIHLYPEAQSVFFQQAGTTINLSGFLKGYALDKIREILKVHIIANALINMGNSSVLALGNHPVGTGWKVSFDDQASTTKNHKTQSILLNNECLTTSGNNSDDRKHIISPSSGKPLEGVRQVTVVTDDGTTGEILSTSLFVANQKQRELIMSEFLPKRVIDLELCQMV | not soluble
MKFKIHSDITYQVMSPTTFIFNVHALRTESQHILDESLIVTPPIEIEEFSYNSGTSRFVRLKATENTTFSMSYTATVDTQYKVIDQRQELETVPVVDLDGDIIPFLFPSRYCQSDKLQKLAYKEFGKIENVYSKVLAITDWIYNNVEYISGSTNSQTSAFDTITERAGVCRDFAHLGIALCRALSIPARYFTGYAFKLNPPDFHACFEAYIGGNWIIFDATRLVPLNGLVKIATGRDAADAAVASIFGNASSTNMHVECASLDTDFTPFWYDKNSLKGLSFQ | soluble
MRNSLFTTLFFGLAALVMVLNAQYTSELEEDEKRGGARAMLHKRGGARAFSADVGDDYKRGGARAFYDEKRGGARAFLTEMKRGGARVFQGFEDEKRGGARAFMMDKRGGGRAFGDMMKRGGARAFVENSKRDEDWVIRPFEDDRLEKRGGGRSFPVKPGRLDD | not soluble
AEDRSLQAEPWFFGAIKRADAEKQLLYSENQTGAFLIRESESQKGDFSLSVLDEGVVKHYRIRRLDEGGFFLTRRKVFSTLNEFVNYYTTTSDGLCVKLEKPCLKIQV | soluble
MASGAGGVGGGGGGKIRTRRCHQGPIKPYQQGRQQHQGILSRVTESVKNIVPGWLQRYFNKNEDVCSCSTDTSEVPRWPENKEDHLVYADEESSNITDGRITPEPAVSNTEEPSTTSTASNYPDVLTRPSLHRSHLNFSMLESPALHCQPSTSSAFPIGSSGFSLVKEIKDSTSQHDDDNISTTSGFSSRASDKDITVSKNTSLPPLWSPEAERSHSLSQHTATSSKKPAFNLSAFGTLSPSLGNSSVLKTSQLGDSPFYPGKTTYGGAAAAVRQSKLRNTPYQAPVRRQMKAKQLSAQSYGVTSSTARRILQSLEKMSSPLADAKRIPSIVSSPLNSVDSQYPPVQRLMTPKPVSIATNRSVYFKPSLTPSGEFRKTNQRIDKKCSTGYEKNMTPGQNREQRESGFSYPNFSLPAANGLSSGVGGGGGKMRRERTRFVASKPLEEEEMEVPVLPKISLPITSSSLPTFNFSSPEITTSSPSPINSSQALTNKVQMTSPSSTGSPMFKFSSPIVKSTEANVLPPSSIGFTFSVPVAKTAELSGSSSTLEPIISSSAHHVTTVNSTNCKKTPPEDCEGPFRPAEILKEGSVLDILKSPGFASPKIDSVAAQPTATSPVVYTRPAISSFSSSGIGFGESLKAGSSWQCDTCLLQNKVTDNKCIACQAAKLSPRDTAKQTGIETPNKSGKTTLSASGTGFGDKFKPVIGTWDCDTCLVQNKPEAIKCVACETPKPGTCVKRALTLTVVSESAETMTASSSSCTVTTGTLGFGDKFKRPIGSWECSVCCVSNNAEDNKCVSCMSEKPGSSVPTSSSSTVPVSLPSGGSLGLEKFKKPEGSWDCELCLVQNKADSTKCLACESAKPGTKSGFKGFDTSSSSSNSAASSSFKFGVSSSSSGPSQTLTSTGNFKFGDQGGFKIGVSSDSGSINPMSEGFKFSKPIGDFKFGVSSESKPEEVKKDSKNDNFKFGLSSGLSNPVSLTPFQFGVSNLGQEEKKEELPKSSSAGFSFGTGVINSTPAPANTIVTSENKSSFNLGTIETKSASVAPFTCKTSEAKKEEMPATKGGFSFGNVEPASLPSASVFVLGRTEEKQQEPVTSTSLVFGKKADNEEPKCQPVFSFGNSEQTKDENSSKSTFSFSMTKPSEKESEQPAKATFAFGAQTSTTADQGAAKPVFSFLNNSSSSSSTPATSAGGGIFGSSTSSSNPPVATFVFGQSSNPVSSSAFGNTAESSTSQSLLFSQDSKLATTSSTGTAVTPFVFGPGASSNNTTTSGFGFGATTTSSSAGSSFVFGTGPSAPSASPAFGANQTPTFGQSQGASQPNPPGFGSISSSTALFPTGSQPAPPTFGTVSSSSQPPVFGQQPSQSAFGSGTTPNSSSAFQFGSSTTNFNFTNNSPSGVFTFGANSSTPAASAQPSGSGGFPFNQSPAAFTVGSNGKNVFSSSGTSFSGRKIKTAVRRRK | soluble
MGSSHHHHHHSSGLVPRGSHMAEFRFIKTSLDGAIIIEPEVYTDERGYFMETFNEAIFQENGLEVRFVQDNESMSVRGVLRGLHFQREKPQGKLVRVIRGEIFDVAVDLRKNSDTYGEWTGVRLSDENRREFFIPEGFAHGFLALSDECIVNYKCTELYHPEYDSGIPWDDPDIGIDWPLEMVDDLIISEKDRNWKPLRENPVYL | soluble
MNFTDTHCHLADPALRENLPHILTAARKVGVKRFIVPATRPQDWQDVADLAEMPSEHGQIRIALGIHPWFSDGIAERDFVRLETMLAHYPQAWVGEIGLDFYDKTQTSQQRERQIQVFVRQLEIAQTLRRRVIIHNLKATADIAAAVKQTGFAQGGIVHAFSGSAEEARVLTKLGFKIGIGSLLLNPNARKVRDTLKALNDGDFVLETDSPFMLKKEINTPANIPGIAKIAAEIRGTCVEEIAKVTERNADALLGR | not soluble
MPSTLSEELVGKYLAAQYQVWIDTSVVTLQIGCQSAPLAALLQATGNRSAVYVTACNPASEVATSQENQSAMARLYERLACYSNHIYRGTGIDPSGEWPAEESLLALGIDLSIAKKIGDEFGQNAIVWIDSAAIPHLVLLC | not soluble
